Drawing on US20140010797, “Fusion Molecules of Rationally-Designed DNA-Binding Proteins and Effector Domains” (DUKE UNIVERSITY, published 2014), this text covers activity for 1 molecule.

The data set deals with T1, CCR2REP (Artificial Sequence, UniProt P05725 SEQ:11-173).
T1 chain: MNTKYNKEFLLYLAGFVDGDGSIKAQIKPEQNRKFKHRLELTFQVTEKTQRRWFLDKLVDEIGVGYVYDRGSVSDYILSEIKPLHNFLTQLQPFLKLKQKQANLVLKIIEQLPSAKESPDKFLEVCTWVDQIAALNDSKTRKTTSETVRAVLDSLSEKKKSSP
The experiment in a line: cell_activity; LacZ reporter with truncated CMV promoter, HEK 293. The conditions noted are these: tags: N-terminal SV40 NLS, C-terminal Kid-1 KRAB; chain copies: 2. The source says: An E. coli beta-galactosidase (LacZ) gene was inserted into the mammalian expression vector pCI (Promega) between PstI and NotI. In this plasmid, LacZ expression is driven by a truncated CMV promoter (corresponding to the 3′ 442 bp of the canonical CMV promoter, SEQ ID NO: 47). A CCR2 recognition sequence (SEQ ID NO: 45) was then inserted at the 5′ end of this promoter (see FIG. 6A).
HEK 293 cells (1×10⁵) were transfected first with either the pCI empty vector or pCI carrying the CCR2REP gene under the control of a constitutive CMV promoter using Lipofectamine 2000 according to the manufacturer's instructions (Invitrogen). 6 hours post-transfection, transfection complexes were removed and replaced with fresh media. 24 hours post-transfection, the cells were re-transfected with the LacZ reporter plasmid using Lipofectamine 2000. As a measure of transfection efficiency, additional cells were transfected at both time points with pCI eGFP. […]
Lysates from transfected cells were subjected to a standard o-nitrophenyl-β-D-galactoside (ONPG) assay (Current Protocols in Molecular Biology. ed. V. B. Chanda. Vol. 2. 2004, John Wiley & Sons, Inc). […] The reaction was stopped with 500 μL 1M Na₂CO₃ after one hour, and the absorbance at 420 nm was measured using a NanoDrop ND-1000 spectrophotometer. β-galactosidase activity was determined using standard equations.

B1: CCR2 palindrome (dsDNA)
DNA 1: AGGCATCTCGTACGAGATGCCT
DNA 2: AGGCATCTCGTACGAGATGCCT
B1 returned an activity of around 2.6 fold repression.
